Patent publication US20200010567A1 (NEURIMMUNE, published 2020)

T1: (PR)15: H-C(PR)15-OH
T1 construct: synthetic, not coupled to BSA; also called poly-PR DPR protein peptide
T1 peptide: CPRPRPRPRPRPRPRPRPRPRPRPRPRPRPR

T2: (GR)15: H-C(GR)15-OH
T2 construct: synthetic, not coupled to BSA; also called poly-GR DPR protein peptide
T2 peptide: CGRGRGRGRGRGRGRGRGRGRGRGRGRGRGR

T3: (GP)15: H-C(GP)15-OH
T3 construct: synthetic, not coupled to BSA; also called poly-GP DPR protein peptide
T3 peptide: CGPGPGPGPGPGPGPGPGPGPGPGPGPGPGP

T4: GA20: H-(GA)20HHHHHH-NH2 (C-terminal amide)
T4 peptide: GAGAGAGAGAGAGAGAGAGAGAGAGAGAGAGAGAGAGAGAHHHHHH

T5: (PA)15: H-C(PA)15-OH
T5 construct: synthetic, not coupled to BSA; also called poly-PA DPR protein peptide
T5 peptide: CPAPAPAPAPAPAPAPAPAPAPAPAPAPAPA


Assays:
(PR)15: H-C(PR)15-OH = biological target: T1, (PR)15: H-C(PR)15-OH; test: indirect ELISA, coated peptide
Experimental: (§1) In brief, dipeptide repeat proteins were synthesized and purified by Schafer-N(Copenhagen, Denmark): (GA)₁₅: H-CHHHHHH(GA)₁₅-OH; (GP)₁₅: H-C(GP)₁₅-OH; (GR)₁₅: H-C(GR)₁₅-OH; (PA)₁₅: H-C(PA)₁₅-OH; (PR)₁₅: H—C(PR)₁₅-OH. 96-well microplates (Corning Incorporated, Corning, USA) were coated with dipeptide repeat protein peptides at a concentration of either 5 μg/ml or 20 μg/ml in coating buffer (15 mM Na₂CO₃, 35 mM NaHCO₃, pH 9.42). Non-specific binding sites were blocked for 1 h at room temperature with PBS/0.1% Tween®-20 containing 2% BSA (Sigma-Aldrich, Buchs, Switzerland). Primary antibodies were diluted to the indicated concentrations and incubated for 1 h at room temperature, followed by incubation with a donkey anti-human IgG Fcγ-specific antibody conjugated with HRP (Jackson ImmunoResearch Laboratories, Inc., West Grove, USA). Binding was determined by measurement of HRP activity in a standard colorimetric assay. EC₅₀ values were estimated by non-linear regression using GraphPad Prism software (San Diego, USA). The binding specificity and EC₅₀ of human-derived antibodies for C9orf72 dipeptide repeat protein peptides (GA)₁₅, (GP)₁₅, (GR)₁₅, (PA)₁₅ and (PR)₁₅ were determined by indirect ELISA.

(GR)15: H-C(GR)15-OH = biological target: T2, (GR)15: H-C(GR)15-OH; test: indirect ELISA, coated peptide
Experimental: as §1

(GP)15: H-C(GP)15-OH = biological target: T3, (GP)15: H-C(GP)15-OH; test: indirect ELISA, coated peptide
Experimental: as §1

GA20: H-(GA)20HHHHHH-NH2 = biological target: T4, GA20: H-(GA)20HHHHHH-NH2; test: indirect ELISA, coated His-tagged peptide
Excerpt: In brief, dipeptide repeat proteins were synthesized and purified by Schafer-N (Copenhagen, Denmark): GA₂₀: H-(GA)₂₀HHHHHH-NH₂; GA₁₀: H-(GA)₁₀HHHHHH-NH₂; GA₆: H-(GA)₆HHHHHH-NH₂; GA₅: H-(GA)₅HHHHHH-NH₂; GA₄: H-(GA)₄HHHHHH-NH₂; GA₃: H-(GA)₃HHHHHH-NH₂; GA₂: H-(GA)₂HHHHHH-NH₂; GP₂₀: H-(GP)₂₀HHHHHH-NH₂; GP₁₀: H-(GP)₁₀HHHHHH-NH₂; GP₆: H-(GP)₆HHHHHH-NH₂; GP₅: H-(GP)₅HHHHHH-NH₂; GP₄: H-(GP)₄HHHHHH-NH₂; GP₃: H-(GP)₃HHHHHH-NH₂; GP₂: H-(GP)₂HHHHHH-NH₂. GR₂₀: H-(GR)₂₀HHHHHH-NH₂; GR₁₀: H-(GR)₁₀HHHHHH-NH₂; GR₆: H-(GR)₆HHHHHH-NH₂; GR₅: H-(GR)₅HHHHHH-NH₂; GR₄: H-(GR)₄HHHHHH-NH₂; GR₃: H-(GR)₃HHHHHH-NH₂; GR₂: H-(GR)₂HHHHHH-NH₂; PA₂₀: H-(PA)₂₀HHHHHH-NH₂; PA₁₀: H-(PA)₁₀HHHHHH-NH₂; PA₆: H-(PA)₆HHHHHH-NH₂; PA₅: H-(PA)₅HHHHHH-NH₂; PA₄: H-(PA)₄HHHHHH-NH₂; PA₃: H-(PA)₃HHHHHH-NH₂; PA₂: H-(PA)₂HHHHHH-NH₂; PR₂₀: H-(PR)₂₀HHHHHH-NH₂; PR₁₀: H-(PR)₁₀HHHHHH-NH₂; PR₆: H-(PR)₆HHHHHH-NH₂; PR₅: H-(PR)₅HHHHHH-NH₂; PR₄: H-(PR)₄HHHHHH-NH₂; PR₃: H-(PR)₃HHHHHH-NH₂; PR₂: H-(PR)₂HHHHHH-NH₂. 96-well microplates (Corning Incorporated, Corning, USA) were coated with dipeptide repeat protein peptides at a concentration of 50 μg/ml in coating buffer (15 mM Na₂CO₃, 35 mM NaHCO₃, pH 9.42). Non-specific binding sites were blocked for 1 h at room temperature with PBS/0.1% Tween®-20 containing 2% BSA (Sigma-Aldrich, Buchs, Switzerland). Primary antibodies were diluted to the indicated concentrations and incubated 1 h at room temperature, followed by incubation with a donkey anti-human IgG Fcγ-specific antibody conjugated with HRP (Jackson ImmunoResearch Laboratories, Inc., West Grove, USA). Binding was determined by measurement of HRP activity in a standard colorimetric assay. EC₅₀ values were estimated by non-linear regression using GraphPad Prism software (San Diego, USA).

transthyrethin = transthyrethin (UniProt P02766 21-147); test: indirect ELISA, coated protein
Experimental: (§2) 96-well microplates (Corning) were coated with different target proteins at a concentration of 1-10 μg/ml in coating buffer (15 mM Na₂CO₃, 35 mM NaHCO₃, pH 9.42). Non-specific binding sites were blocked for 1 h at RT with PBS/0.1% Tween®-20 containing 2% BSA (Sigma-Aldrich, Buchs, Switzerland). […] Binding was determined using donkey anti-human IgG Fcγ-specific antibody conjugated with HRP (Jackson ImmunoResearch Laboratories, Inc., West Grove, USA) followed by measurement of HRP activity in a standard colorimetric assay. Signals for target protein were calculated in fold increase above median.

[1] = biological target: T6, full-length amyloid precursor protein (UniProt P05067 18-770, limits assumed); test: indirect ELISA, coated protein
T6 construct: also called flAPP
Experimental: as §2

Tau = Tau (UniProt P10636-8 1-441, limits assumed); test: indirect ELISA, coated protein
Experimental: as §2

[2] = biological target: T7, transactive response DNA binding protein 43 (UniProt Q13148 1-414, limits assumed); test: indirect ELISA, coated protein
T7 construct: also called TDP-43
Experimental: as §2

(PA)15: H-C(PA)15-OH = biological target: T5, (PA)15: H-C(PA)15-OH; test: indirect ELISA, coated peptide
Experimental: as §1

T6 sequence (P05067 18-770 limits assumed): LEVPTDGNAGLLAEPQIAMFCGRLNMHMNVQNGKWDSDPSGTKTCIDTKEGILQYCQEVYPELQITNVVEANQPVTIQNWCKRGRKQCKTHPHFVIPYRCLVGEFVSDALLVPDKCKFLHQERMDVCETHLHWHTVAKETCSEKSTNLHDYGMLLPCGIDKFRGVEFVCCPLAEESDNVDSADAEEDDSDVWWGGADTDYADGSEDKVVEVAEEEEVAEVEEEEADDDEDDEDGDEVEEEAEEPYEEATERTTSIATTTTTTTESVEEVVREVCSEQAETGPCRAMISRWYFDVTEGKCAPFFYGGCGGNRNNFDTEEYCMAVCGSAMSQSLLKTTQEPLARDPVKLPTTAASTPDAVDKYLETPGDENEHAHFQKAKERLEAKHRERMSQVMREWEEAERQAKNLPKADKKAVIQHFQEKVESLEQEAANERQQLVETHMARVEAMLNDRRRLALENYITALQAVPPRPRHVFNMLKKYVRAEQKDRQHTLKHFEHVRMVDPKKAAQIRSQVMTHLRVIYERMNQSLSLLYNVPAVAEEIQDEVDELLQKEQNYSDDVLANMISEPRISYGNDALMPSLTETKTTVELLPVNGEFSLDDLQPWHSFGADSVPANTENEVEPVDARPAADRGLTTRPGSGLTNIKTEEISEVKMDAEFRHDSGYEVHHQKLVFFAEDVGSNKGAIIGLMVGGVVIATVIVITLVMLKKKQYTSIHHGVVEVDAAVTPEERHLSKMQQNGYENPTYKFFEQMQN
Tau, sequence (P10636 other isoform, or with tags, fused parts or gaps limits assumed): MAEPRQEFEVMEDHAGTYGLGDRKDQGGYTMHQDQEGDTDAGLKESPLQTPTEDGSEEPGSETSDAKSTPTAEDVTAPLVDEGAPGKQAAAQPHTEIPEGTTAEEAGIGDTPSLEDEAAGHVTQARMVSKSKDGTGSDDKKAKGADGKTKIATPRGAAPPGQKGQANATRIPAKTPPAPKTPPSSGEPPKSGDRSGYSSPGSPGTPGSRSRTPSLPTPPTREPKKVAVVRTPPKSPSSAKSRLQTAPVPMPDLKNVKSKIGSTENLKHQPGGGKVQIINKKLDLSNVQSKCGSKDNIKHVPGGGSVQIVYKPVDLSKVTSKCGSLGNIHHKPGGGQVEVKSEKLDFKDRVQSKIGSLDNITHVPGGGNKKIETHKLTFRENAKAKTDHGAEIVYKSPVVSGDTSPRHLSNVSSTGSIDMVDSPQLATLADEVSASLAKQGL
T7 sequence (Q13148 whole entry): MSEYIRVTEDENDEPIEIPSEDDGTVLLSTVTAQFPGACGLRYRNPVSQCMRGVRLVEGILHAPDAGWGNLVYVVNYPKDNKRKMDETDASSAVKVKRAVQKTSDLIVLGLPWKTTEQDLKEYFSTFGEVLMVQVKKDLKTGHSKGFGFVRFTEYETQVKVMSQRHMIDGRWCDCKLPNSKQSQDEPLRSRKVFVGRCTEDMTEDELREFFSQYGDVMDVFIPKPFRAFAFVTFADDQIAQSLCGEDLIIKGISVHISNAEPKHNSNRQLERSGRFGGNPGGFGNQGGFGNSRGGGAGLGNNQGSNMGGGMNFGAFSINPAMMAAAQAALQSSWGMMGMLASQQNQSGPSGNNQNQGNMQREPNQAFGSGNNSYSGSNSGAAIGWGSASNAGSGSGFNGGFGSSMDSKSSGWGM

Binder | binding result ((PR)15: H-C(PR)15-OH) | binding result ((GR)15: H-C(GR)15-OH) | binding result ((GP)15: H-C(GP)15-OH) | EC50 (GA20: H-(GA)20HHHHHH-NH2) [nM] | binding result (transthyrethin) | binding result [1] | binding result (Tau) | binding result [2] | binding result ((PA)15: H-C(PA)15-OH)
NI-308.4M1 (antibody, V domains shown, Recombinant complete human IgG1, kappa) VH: EVQLVETGGGVVQPGGSLRLSCEASGFTIGTYAMHWVRQFPGKGLDWVAVISFDGTTEYYTDAVKGRFTISRDNAKNTLYLQMNYLRGDDTAIYFCARDFTSSGETGSWTQVPDLWGQGTLVTVSS VL: CEIVMTQSPATLSLSPGERATLSCRASQSVTKYLAWYQQKPGQAPRLLIYDVSYRAAGTPARFSGSGSGTDFTLTISSLEPEDFAVYYCHQRSSWPPVTFGGGTKVEIK | no binding | no binding | no binding |  |  |  |  |  | 
NI-308.6B11 (antibody, V domains shown, Recombinant complete human IgG1, kappa) VH: EVQLVQSGAEVKRPGASVKVSCKVSGYTLTELSMHWVRQAPGKGLEWMGGFDPEDGETVYAQKFQGRVTMTEDTSTDTAYMELSSLRSEDTALYHCATYGSSWHWNEGNEGSYYFDYWGQGTLVTVSS VL: CDIQMTQSPSSLSASVGDRVTITCQASQDISIYLNWYQQKPGKAPKLLIYDASNLETGVPSRFSGSGSGTDFTFTISGLQPEDVARYYCQQYDDLPITFGQGTRLEIK |  |  | no binding | 33.6 | no binding (tested: 20 nM) | no binding (tested: 20 nM) | no binding (tested: 20 nM) | no binding (tested: 20 nM) | no binding
NI-308.28G1 (antibody, V domains shown, Recombinant complete human IgG1, kappa) VH: QVQLQESGPRLVKPSETLSLTCTVAGGSVNSYYWTWIQQSPGKGLEWLGRIYIAGRTNYNPSLTSRIALSVDTSRNQLSLKLTSVTAADTAIYYCARWGAESGDYYYGVDVWGPGTLVTVSS VL: EIVMTQSPLSLPVTPGEPASISCKSSEGLLHSNGYTYLDWYLQKPGQAPQLLIFLASNRAAGVPDRFSGSGSGTDFTLKISRVEAEDVGVYYCMQAIQSPWTFGPGTKVEIK | no binding | no binding | no binding | 1.1 | no binding (tested: 20 nM) | no binding (tested: 20 nM) | no binding (tested: 20 nM) | no binding (tested: 20 nM) | no binding
NI-308.45C2 (antibody, V domains shown, Recombinant complete human IgG1, kappa) VH: QLQLQESGPGLVKPSQILSLTCAISGDSVFSNSAAWNWIRQSPSRGLEWLGRTYYRSKWDNDYAPSVKSRISINPDTSKNQFSLQLNSVTPEDTAVYYCAREVAYCGGDCYSVSFDYWGQGTLVTVSS VL: not shown | no binding | no binding | no binding | 9.6 | no binding (tested: 20 nM) | no binding (tested: 20 nM) | no binding (tested: 20 nM) | no binding (tested: 20 nM) | no binding
NI-308.5G2 (antibody, V domains shown, Recombinant complete human IgG1, kappa) VH: EVQLVQSGADLRNPGASVTVSCTASGYHFADNAINWLRQAPGQRLEWMGWINIYSGNTKYSQNFQGRVTFTRNTSASTAFMHLRSLRSEDTAVYFCARDPDSSGYYLPYFDYWGQGTLVTVSS VL: DIQLTQSPDSLTLSLGERATINCKSSQSVFYNSNNKNYLAWYQQKPGQPPKLLMYWASTRESGVTDRFSGSGSGTDFTLTITNLQAEDVAVYYCQQFYSSPLTFGGGTKVEIK | no binding | no binding |  | 18.2 | no binding (tested: 20 nM) | no binding (tested: 20 nM) | no binding (tested: 20 nM) | no binding (tested: 20 nM) | no binding
NI-308.15O7 (antibody, V domains shown) VH: QVQLVESGGGVVQPGRSLRLSCAASGFTFSNHAMHWVRQAPGKGLEWVAVISYDGENTYYADSIEGRFTISRDNFKNTLFLQMYSLTADDTAMYFCARGGRRGHFTSYYLDYWGQGTLVTVSS VL: CDIQMTQSPSSLSASVGDRVTITCRASQNIDKYLNWYQQIPGKAPKLLIYAASSLHSGVPSRFSGSGSGTDFSLTISSLQPEDFAIYYCQQSYSSFRTFGQGTKLEIK | no binding | no binding | no binding | 0.54 | no binding (tested: 20 nM) | no binding (tested: 20 nM) | no binding (tested: 20 nM) | no binding (tested: 20 nM) | no binding
NI-308.24E11 (antibody, V domains shown, Recombinant complete human IgG1, kappa) VH: QVQLQESGPGLVKPSETLSLTCTVSTTSLRSYFWSWIRQPPGKGLEWIGYVYYSGSTIYNPSLKNRVTISIDTSKNQFSLNLRSVTAADTAMYFCARGVPAETDARDFPPYYFDHWGQGTLVTVSS VL: CDIQLTQSPSSLSASVGNRITFTCQASQDIRYYLNWYQQKPGKAPKLLIYDVSNLDTGVPPRFSGSGSGTNFTFTISSLQPEDIAVYYCQQYEGLPVTFGGGTKVEIK |  | no binding | no binding |  | no binding (tested: 20 nM) | no binding (tested: 20 nM) | no binding (tested: 20 nM) | no binding (tested: 20 nM) | no binding
NI-308.46E9 (antibody, V domains shown, Recombinant complete human IgG1, kappa) VH: QVQLQESGPGLVKPSETLSLTCTVSGASISGSTYYWGWIRQPPGKGLEYIGRIYYSGSTYYNPSLKSRATISVDTSKNQLSLTLSSVTAADTAVYYCVRPFYAGSGNSPFDYWGQGTLVTVSS VL: CEIVLTQSPATVSVSPGERATLSCRASQSVSTNLAWYQQKPGQPPRLLIYGASTRATGIPARFSGSGSGAEFTLTISSLQSEDFVVYYCQQYNNWPPAFGGGTKVEIK | no binding | no binding |  |  |  |  |  |  | no binding
